According to patent US20180244795A1 (DEBIOPHARM INTERNATIONAL S A, published 2018):

Legend:
Human CD37 = target: T1, Human CD37 (human, UniProt P11049 1-281); assay: IHC on FFPE CD37-positive samples (human tonsil, Daudi, Ramos, Namalwa cells)
T1 construct: Endogenous CD37 in formalin fixed paraffin embedded Daudi, Ramos and Namalwa cell pellets and human tonsil (IHC); also called GP52-40; tetraspanin-26
T1 sequence: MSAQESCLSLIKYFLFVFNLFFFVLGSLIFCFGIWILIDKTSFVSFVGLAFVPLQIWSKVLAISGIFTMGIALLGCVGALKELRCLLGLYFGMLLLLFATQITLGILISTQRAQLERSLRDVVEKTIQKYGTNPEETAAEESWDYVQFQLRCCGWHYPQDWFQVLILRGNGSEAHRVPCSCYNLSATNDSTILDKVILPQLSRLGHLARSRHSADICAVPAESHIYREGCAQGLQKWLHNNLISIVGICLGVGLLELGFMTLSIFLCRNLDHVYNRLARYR
Experimental: Slides were incubated with ImmunoGen, Inc. generated 1B11-2 antibody, Leica/Novocastra NCL-CD37 antibody (clone CT1) or Leica/Novocastra muIgG1 control antibody at varying concentrations for 15 minutes. Bound antibodies were detected by incubation with the Leica Bond Refine detection system. Following the application of the antibodies, slides were incubated with Post Primary Reagent (rabbit anti-mouse IgG) for 8 minutes, Polymer (goat anti-rabbit polymer) for 8 minutes, and DAB (3,3-diaminobenzidine tetrahydrochloride) for 10 minutes. […] Slides were counterstained with hematoxylin for 5 minutes.
Purified antibody from clone 1B11-2 diluted at 8.4 μg/mL, 4.2 μg/mL, and 2.1 μg/mL in Leica Antibody Diluent (Tris-buffered saline, surfactant, and protein stabilizer with 0.35% ProClin™ 950) was used to stain CD37-positive control samples (human normal tonsil, Daudi cells, Ramos cells, and Namalwa cells). The antibody was evaluated for CD37 specificity as measured by acceptable membrane staining and specificity in CD37-positive samples. This clone was also compared with the NCL-CD37 mouse mAb (clone CT1) diluted to 4.2 μg/mL in Leica Antibody Diluent using the same CD37 positive human tissue and cells. […] A suitable staining concentration of 4.2 μg/mL was experimentally determined for 1B11-2.

[1] = target: T2, hCD37-ECD-S2-Fc (amino acids 107 to 109 and 138 to 235 of human CD37 fused to murine IgG2a Fc-domain) (human); assay: ELISA, native hCD37-ECD-S2-Fc coated on the plate, purified antibody titrated
T2 construct: Produced in HEK-293T cells; It lacks the S1 segment (amino acids 110-137) of the CD37 large extracellular domain; also called truncated hCD37-ECD-S2-Fc protein
T2 chain: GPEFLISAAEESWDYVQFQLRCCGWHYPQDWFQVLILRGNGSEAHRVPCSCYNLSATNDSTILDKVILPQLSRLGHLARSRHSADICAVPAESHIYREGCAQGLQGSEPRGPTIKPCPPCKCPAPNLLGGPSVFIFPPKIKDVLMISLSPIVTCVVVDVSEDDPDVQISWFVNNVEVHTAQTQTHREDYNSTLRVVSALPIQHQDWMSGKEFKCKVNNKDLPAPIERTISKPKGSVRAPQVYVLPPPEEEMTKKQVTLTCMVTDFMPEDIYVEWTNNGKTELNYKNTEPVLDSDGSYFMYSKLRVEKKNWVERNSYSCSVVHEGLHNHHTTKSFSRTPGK
Experimental: (§1) Antibody from 1B11-2 was purified using standard protein-A chromatography. An anti-CD37 antibody sold by Leica Biosystems (product code NCL-CD37) was used for comparison. The binding of the anti-CD37 antibodies was examined by ELISA with recombinant CD37 proteins used as the antigen. Each recombinant protein was immobilized at approximately 25-100 ng/well on microtiter plates in Sodium bicarbonate coating buffer (Sigma-Aldrich) using either native or denatured conditions as described above. Plates were washed once with PBS supplemented with 0.05% Tween-20 and blocked with PBS supplemented with 1% bovine serum albumin (BSA). Plates were washed three times with PBS supplemented with 0.05% Tween-20 and purified antibodies were added to the plates. Plates were incubated for one hour at room temperature, washed three times as above, and incubated with HRP-labeled goat anti-murine secondary antibody (Jackson ImmunoResearch, diluted at 1:5,000) for one hour at room temperature. The plates were washed three times as above, and bound HRP-conjugated antibody was detected by adding the HRP-substrate TMB (Bio-FX). Plates were incubated for approximately 10 minutes, and then color development was stopped with stop solution (Bio-FX). Absorbance at 450 nm was measured for each plate in a multiplate reader. Representative results are shown in FIG. 2 for binding to native hCD37-Fc-LAGA and hCD37-LEL. […]

[2] = target: T3, hCD37-Fc-LAGA (amino acids 107 to 235 of human CD37 fused to human IgG1 Fc-domain) (human); assay: ELISA, native hCD37-Fc-LAGA coated on the plate, purified antibody titrated (left panel)
T3 construct: Produced in HEK-293T cells
Experimental: as §1

[3] = target: T4, hCD37-ECD-Fc (amino acids 107 to 235 of human CD37 fused to murine IgG2a Fc-domain) (human); assay: Western blot after denaturing, reducing SDS PAGE (Gel C), primary 1B11-2, secondary anti-mouse F(ab)2-HRP
T4 construct: Produced in HEK-293T cells
T4 chain: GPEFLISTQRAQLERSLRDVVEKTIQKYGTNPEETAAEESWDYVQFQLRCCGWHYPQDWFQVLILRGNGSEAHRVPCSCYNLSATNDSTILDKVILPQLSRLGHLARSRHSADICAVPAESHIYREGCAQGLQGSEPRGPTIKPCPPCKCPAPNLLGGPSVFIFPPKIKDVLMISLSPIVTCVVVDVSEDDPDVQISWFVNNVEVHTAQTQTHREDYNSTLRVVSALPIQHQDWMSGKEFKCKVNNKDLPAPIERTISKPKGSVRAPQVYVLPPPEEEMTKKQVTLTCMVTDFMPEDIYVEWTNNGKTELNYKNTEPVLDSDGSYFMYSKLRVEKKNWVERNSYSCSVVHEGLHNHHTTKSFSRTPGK
Experimental: The ability to recognize different preparations of Fc-fused CD37-ECDs was tested in denaturing SDS PAGE followed by Western blotting for 1B11-2 (left panel), in direct comparison with a commercially available anti-CD37 antibody (Leica; right panel). Fc-fused CD37-ECD preparations were denatured by incubation in Laemmli buffer containing 70mM β-mercapto-ethanol at 100° C. for 10 min, and were separated by SDS polyacrylamide gel electrophoresis, followed by electrophoretic transfer to PVDF membranes. Membranes were blocked with 5% non-fat milk in Tris-buffered saline with 0.1% Tween-20 (TBST) for 1 hour at room temperature. Primary antibodies were applied overnight, followed by detection with secondary anti-mouse F(ab)₂ conjugated to horse radish peroxidase for 1 h at room temperature. Blots were developed using enhanced chemiluminescence detection following standard procedures. While the Leica antibody recognizes all three Fc-CD37 ECD preparations, the 1B11-2 antibody of the invention recognizes only hCD37-ECD-Fc and hCD37-Fc-LAGA, but not hCD37-ECD-S2-Fc. The hCD37-ECD-S2-Fc construct is missing the S1 segment (amino acids 110-137) of the CD37 ECD. Thus, a region of amino acids 110-137 is critical for epitope recognition by 1B11-2, but not by the Leica antibody.

binding result (Human CD37): binds
binding result [1]: no binding (tested: 1e-7 M)
EC50 (read off the curve) [2]: ~0.1 nM
binding result [3]: binds
B1: muCD37-1B11-2 mouse monoclonal anti-human CD37 antibody (antibody, mouse IgG1, kappa, V domains shown)
VH: EVQLLQSGPELVKPGASVKISCKASGYSFTGYFMNWVIQSHGKGLEWIGRINPYNGDTFYNQKFKGKATLTVDKSSTTAHMELLSLTSEDSAVYYCGSRGIVASSRFFDVWGAGTSVIVSS
VL: SIVMTQTPKFLLVSAGDRVTITCKASQGVSNDVDWYQQKPGQSPKLLIYYASNRYTGVPDRFTGSGYGTDFTFSISTVQAEDLAVYFCHQDYTSPTFGGGTKLEIKR
notes: Murine IgG1/kappa from hybridoma; also called antibody 1B11-2; CD37 1B11-2 Mouse mAb
